According to the supplement of paper PMC10126150:
± gives the standard deviation of the averaged measurements.

test system: ATP; assay: switch fluorescence ratio, 500 uM ATP over buffer (Cy3 cluster intensity, sum of 5 cycles each) (fold (ratio)); higher = stronger signal-on switching upon ATP binding; sequences stand for … in TCGTCGGCAGCGTCAGATGTGTATAAGAGACAGTTTTTTTTTTTTTTTTTTTTTTTTT…TC; details: aptamer strand: ATP DNA aptamer (quencher-CACCTGGGGGAGTATTGCGGAGGAAGG + anchor), 100 nM annealed; ATP concentration: 500 uM
How it was run: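 After annealing to 100 nM quencher-labelled ATP aptamer, Cy3-labelled switching-strand clusters on a modified Illumina MiSeq flow-cell were imaged in selection buffer. A second image followed after 15 min with 500 uM ATP at 22 °C, and five such buffer/ATP cycles were done, each separated by NaOH stripping and re-annealing. The fluorescence ratio, averaged per switch-domain sequence, is summed target-cycle over summed buffer-cycle Cy3 intensity per cluster, with clusters outside 100-1000 RFU excluded.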
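Note: ATP exposure 15 min at 22 °C before imaging.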

Sequence | switch fluorescence ratio
AGGGCGTATT | 0.974 ± 0.026
AGGGCGTCTG | 1.01 ± 0.058
AGGGCTAGTA | 1 ± 0.034
AGGGGAAGAC | 1.29 ± 0.41
AGGGGAAGGG | 1.02 ± 0.012
AGGGGAATGT | 0.979 ± 0.026
AGGGGACTTG | 1.01 ± 0.06
AGGGGAGACC | 0.9775 ± 0.0096
AGGGGAGGAG | 0.974 ± 0.017
AGGGGATAGC | 1.01 ± 0.017
AGGGGATGGC | 0.946 ± 0.017
AGGGGATTAC | 1.062 ± 0.0014
AGGGGATTCA | 1.02 ± 0.02
AGGGGATTTT | 1.04 ± 0.056
AGGGGCAAAT | 1.01 ± 0.029
AGGGGCAAGA | 1.04 ± 0.032
AGGGGCACGA | 1.03 ± 0.024
AGGGGCAGGA | 0.941 ± 0.06
AGGGGCATAG | 1.007 ± 0.003
AGGGGCCGGT | 1.01 ± 0.014
AGGGGCGGGA | 0.962 ± 0.041
AGGGGCTAGG | 0.983 ± 0.033
AGGGGCTTAT | 1.01 ± 0.014
AGGGGCTTGC | 0.956 ± 0.036
AGGGGCTTTG | 1.03 ± 0.032
AGGGGCTTTT | 0.998 ± 0.012

Sequence | switch fluorescence ratio
AGGGGGAAGC | 1.02 ± 0.027
AGGGGGACAG | 0.9761 ± 0.0039
AGGGGGAGGG | 1.01 ± 0.03
AGGGGGAGTA | 0.993 ± 0.027
AGGGGGCCGC | 0.976 ± 0.087
AGGGGGCCGT | 0.982 ± 0.042
AGGGGGCTCT | 1.02 ± 0.029
AGGGGGGAGT | 1.02 ± 0.031
AGGGGGGATG | 0.992 ± 0.022
AGGGGGGCCA | 1.02 ± 0.028
AGGGGGGCTC | 0.98 ± 0.04
AGGGGGGGA | 0.9821 ± 0.0079
AGGGGGGGTA | 0.997 ± 0.033
AGGGGGGGTT | 0.992 ± 0.033
AGGGGGGTAT | 0.993 ± 0.027
AGGGGGTAAT | 1.01 ± 0.049
AGGGGGTCTA | 1.013 ± 0.0014
AGGGGGTGTC | 1.075 ± 0.0097
AGGGGGTTCG | 1.02 ± 0.027
AGGGGTAAAG | 0.955 ± 0.021
AGGGGTAAGG | 1.03 ± 0.033
AGGGGTAAGT | 0.981 ± 0.011
AGGGGTATGG | 0.998 ± 0.017
AGGGGTCAGG | 1.022 ± 0.0055
AGGGGTGAAA | 0.987 ± 0.021
AGGGGTGATG | 0.9827 ± 0.001

Sequence | switch fluorescence ratio
AGGGGTGGTC | 1.04 ± 0.017
AGGGGTGTG | 1 ± 0.046
AGGGGTTAAG | 0.954 ± 0.024
AGGGGTTAAT | 0.985 ± 0.035
AGGGGTTGTG | 1 ± 0.024
AGGGGTTGTT | 1.07 ± 0.091
AGGGGTTTGA | 1.01 ± 0.047
AGGGTAAAGG | 0.989 ± 0.019
AGGGTAATGG | 1.03 ± 0.021
AGGGTATCTC | 1.08 ± 0.1
AGGGTATGAT | 0.99 ± 0.025
AGGGTATTTC | 1.02 ± 0.012
AGGGTCCACG | 0.947 ± 0.015
AGGGTCTGCG | 0.981 ± 0.025
AGGGTCTGGG | 0.993 ± 0.034
AGGGTGAATA | 1.005 ± 0.0027
AGGGTGACAT | 0.999 ± 0.013
AGGGTGACGG | 1.02 ± 0.031
AGGGTGATTG | 1.009 ± 0.0077
AGGGTGGAGC | 1.07 ± 0.092
AGGGTGGCGC | 1.02 ± 0.021
AGGGTGGCGT | 0.9459 ± 0.0075
AGGGTGGCTA | 1.011 ± 0.0015
AGGGTGTGGT | 0.9841 ± 0.0039
AGGGTGTTTT | 1.01 ± 0.028
